Here are results for one molecule from article PMC8016914.

What is called stoichiometry N is a count of units in the complex or per binding partner.

This assay concerns the target T1, PsbS modified to contain a strep-tag at the C terminus (Arabidopsis thaliana), Q9XF91.
T1 chain: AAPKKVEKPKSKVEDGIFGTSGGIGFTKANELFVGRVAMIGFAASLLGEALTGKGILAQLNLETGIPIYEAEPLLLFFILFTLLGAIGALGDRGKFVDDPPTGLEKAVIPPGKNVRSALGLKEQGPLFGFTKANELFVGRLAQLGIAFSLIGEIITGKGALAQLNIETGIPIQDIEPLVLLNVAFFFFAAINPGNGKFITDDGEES
Briefly: SDS-PAGE and immunoblot; PsbS in detergent and in LHCII + PsbS proteoliposomes (thylakoid lipids); monomeric (M) and dimeric (D) bands detected with an anti-PsbS antibody. Particulars: remark: other sources report otherwise. (In general: In western blotting, separated proteins are transferred to a membrane and probed.)

B1: PsbS modified to contain a strep-tag at the C terminus, Q9XF91 60-265 (natural protein)
chain: AAPKKVEKPKSKVEDGIFGTSGGIGFTKANELFVGRVAMIGFAASLLGEALTGKGILAQLNLETGIPIYEAEPLLLFFILFTLLGAIGALGDRGKFVDDPPTGLEKAVIPPGKNVRSALGLKEQGPLFGFTKANELFVGRLAQLGIAFSLIGEIITGKGALAQLNIETGIPIQDIEPLVLLNVAFFFFAAINPGNGKFITDDGEES
For B1, the stoichiometry N was 2.
